Data reported in US6652861B1, “Anti-HIV and anti-tumor peptides and truncated polypeptides of MAP30” (priority 1999, dated 2003).
Where two headings read alike, the source gives them in different places.

How the values were obtained:
[1] = tested on: ribosome (rabbit reticulocyte lysate system); experiment: Ribosome inactivation: translation of globin message in a rabbit reticulocyte lysate system; type: biochemical; conditions: [3H]-labelled leucine incorporation
Method: (§1) In FIG. 3A, anti-HIV activity was assayed by HIV core protein p24 expression in H9 cells (Lee-Huang et al., 1990 and Lee-Huang et al., 1991). […] Anti-tumor activity was determined by in vitro proliferation of human breast tumor MAD-MB-231 cell by [^3H] thymidine incorporation (Lee-Huang et al., 1999) and the average control value was about 1.88×10^5 cpm/ml (FIG. 3B). In FIG. 3C, the cytotoxic effect was measured by the MTS colorimetric assay (Lee-Huang et al., 1999), and in FIG. 3D, the ribosome-inactivation activity was determined by in vitro translation of globin message in a rabbit reticulocyte lysate system (Lee-Huang et al., 1990 and Lee-Huang et al., 1991) and the average control value was about 5.8×10^4 cpm/ml. In each assay, triplicates were carried in two independent experiments, and the results are normalized to values obtained in control assays. Standard deviations are indicated by error bars.
(§2) Anti-HIV activity was determined by inhibition on the expression of viral core protein p24 expression by RIA (Lee-Huang et al., 1990; Lee-Huang et al., 1991 and Lee-Huang et al., 1999). Anti-tumor activity was determined by the effects of the peptide fragments on the growth of human breast tumor cell line MDA-MB-231 by [^3H] thymidine incorporated (Lee-Huang et al., 1999 and Rybak et al., 1994). HIV-integrase inhibition was assayed by the three specific reactions catalyzed by the integrase, namely, 3′ processing (specific cleavage of the dinucleotide GT from the viral substrate HIV-LTR U3), strand transfer (integration) and disintegration (Lee-Huang et al., 1995). Topological inactivation was measured by the conversion of supercoiled HIV-LTR DNA to relaxed and linear forms (Huang et al., 1992). Ribosome inactivation was determined by the translation of globin message in a rabbit reticulocyte lysate system (Lee-Huang et al., 1990 and Lee-Huang et al., 1991).
The anti-HIV and anti-tumor fragments, MLF25, MLF21, MVF25, MVF21, GLF26, GLF22, GVF26, GVF22 are active in HIV-integrase inhibition as assayed by the 3′-processing (FIG. 4A), strand transfer and disintegration (data not shown) as well as in DNA topological inactivation as assayed by the conversion of supercoiled HIV-LTR into relaxed and linear forms (FIG. 4B). […] Moreover, the C-terminal regions of these proteins are required for N-glycosidase activity, but not for antiviral and anti-tumor activities.

[2] = tested on: endoproteinase Lys-C and Glu-C (V8); experiment: Resistance to limited proteolysis with Lys-C and V8 (SDS-PAGE); conditions: Lys-C or V8, up to 24 hr
Method: MAP30 and GAP31 were subjected to proteolysis with sequencing grade endoproteinase Lys-C and Glu-C (Promega, Madison, Wis.). Lys-C cleaves at the carboxylic side of lysine (Elliott et al., 1986). Glu-C, also known as V8 protease, cleaves specifically at the carboxylic side of glutamic acid in the presence of ammonium ion (Drapeau et al., 1972). In the absence of ammonium ion, Glu-C acts at both aspartic and glutamic acids. The reaction buffers for Lys-C and V8 were 25 mM Tris-HCl, pH 7.8, 1 mM EDTA and 50 mM ammonium bicarbonate, pH 7.8 respectively.
FIGS. 1A-1D show time course SDS-PAGE patterns of Lys-C and V8 digestions of MAP30 and GAP31. Three major fragments were produced in each case. These fragments are designated MLF25, MLF21, MLF0.8 (MAP30 Lys-C Fragments of 25, 21, and 0.8 kDa, FIG. 1A), MVF25, MVF21, MVF0.8 (MAP30 V8 Fragments of 25, 21, and 0.8 kDa, FIG. 1B), GLF26, GLF22, GLF0.6 (GAP31 Lys-C Fragments of 26, 22 and 0.6 kDa, FIG. 1C), and GVF26, GVF22, GVF0.6 (GAP31 V8 Fragments of 26, 22 and 0.6 kDa, FIG. 1D). The smaller peptides are C-terminal fragments produced during proteolysis and they are sensitive to further digestion to short peptides.

supercoiled HIV-LTR DNA = experiment: Topological inactivation: conversion of supercoiled HIV-LTR DNA to relaxed and linear forms; type: biochemical; conditions: supercoiled HIV-LTR into relaxed and linear forms
Method: (§3) In FIG. 4A, the inhibition on HIV-integrase was assayed by the 3′-processing reaction of HIV-1 integrase (Lee-Huang et al., 1995). This activity was assayed by specific cleavage of the dinucleotide GT from 5′-[^32P] labeled 21-mer of the HIV-U3-LTR substrate. The effect was measured by the inhibition of the formation of labeled 19-mer product by autoradiography of urea gels. […] In FIG. 4B, topological inactivation was measured by the conversion of supercoiled HIV-LTR DNA (S) into relaxed (R) and linear (L) forms by agarose gel electrophoresis (Huang et al., 1992). Samples that cause topological inactivation show L and R and no S forms.
as §2

HIV-1 integrase = molecular target: T1, HIV-1 integrase (Human immunodeficiency virus type 1 group M subtype B, UniProt P04585); experiment: HIV-integrase inhibition (3'-processing, strand transfer, disintegration); type: biochemical; conditions: strand transfer and disintegration
T1 construct: assayed by the 3′-processing reaction of HIV-1 integrase
Method: as §3, §2

[3] = tested on: human breast tumor cell line MDA-MB-231; experiment: Anti-tumor activity: proliferation of MDA-MB-231 cells by [3H] thymidine incorporation; type: cell-based; conditions: MDA231 proliferation
Method: as §1, §2
(§4) To analyze the structural and activity relationship of the anti-HIV proteins, each of the homogeneous proteolytic fragments was assayed for anti-HIV and anti-tumor activities. […] Anti-HIV activity was measured by viral core protein p24 expression in HIV-1 infected H9 T lymphocytes by RIA (Lee-Huang et al., 1990 and Lee-Huang et al., 1991). Anti-tumor activity was measured by proliferation of human breast tumor MDA231 cells (Lee-Huang et al., 1999 and Rybak et al., 1994). […] No significant difference in the anti-HIV and anti-tumor activities was detected between these core fragments.

HIV-1 = experiment: Anti-HIV activity: viral core protein p24 expression in HIV-1 infected H9 T lymphocytes by RIA; type: cell-based
Method: as §1, §2, §4

GVF22: GAP31 V8 fragment, 21-22 kDa, residues 1-195 of SEQ ID NO:2
ribosome inactivation [1]: none of these fragments are active | resistance to proteolysis [2]: remained intact even after 24 hr of proteolysis | DNA topological inactivation (supercoiled HIV-LTR DNA): active | HIV-integrase inhibition (HIV-1 integrase): active

GVF0.6: GAP31 V8 C-terminal fragment, residues 196-251 of SEQ ID NO:2 (NKWGKLSFQIRTSGANGMFSEAVELERANGKKYYVTAVDQVKPKIALLKFVDKDPK; listed as Gelonium multiflorum)
anti-tumor activity [3]: neither anti-HIV nor anti-tumor activity | anti-HIV activity (HIV-1): neither anti-HIV nor anti-tumor activity

GLF26: GAP31 Lys-C fragment, 25-26 kDa, residues 11-226 of SEQ ID NO:2
ribosome inactivation [1]: none of these fragments are active | resistance to proteolysis [2]: remained intact even after 24 hr of proteolysis | DNA topological inactivation (supercoiled HIV-LTR DNA): active | HIV-integrase inhibition (HIV-1 integrase): active | anti-tumor activity [3]: Most of the anti-HIV and anti-tumor activity | anti-HIV activity (HIV-1): Most of the anti-HIV and anti-tumor activity

GLF0.6: GAP31 Lys-C C-terminal fragment, residues 201-251 of SEQ ID NO:2 (LSFQIRTSGANGMFSEAVELERANGKKYYVTAVDQVKPKIALLKFVDKDPK; listed as Gelonium multiflorum)
anti-tumor activity [3]: neither anti-HIV nor anti-tumor activity | anti-tumor activity ([3]; listed as peak 3): no activity was found | anti-HIV activity (HIV-1): neither anti-HIV nor anti-tumor activity | anti-HIV activity (HIV-1; listed as peak 3): no activity was found

GVF26: GAP31 V8 fragment, 25-26 kDa, residues 1-219 of SEQ ID NO:2
ribosome inactivation [1]: none of these fragments are active | DNA topological inactivation (supercoiled HIV-LTR DNA): active | HIV-integrase inhibition (HIV-1 integrase): active

GLF22: GAP31 Lys-C fragment, 21-22 kDa, residues 11-200 of SEQ ID NO:2
ribosome inactivation [1]: none of these fragments are active | DNA topological inactivation (supercoiled HIV-LTR DNA): active | HIV-integrase inhibition (HIV-1 integrase): active | anti-tumor activity [3]: Most of the anti-HIV and anti-tumor activity | anti-HIV activity (HIV-1): Most of the anti-HIV and anti-tumor activity

B1: MVF0.8: MAP30 V8 C-terminal fragment, residues 188-263 of SEQ ID NO:1 (protein, listed as Momordica charantia)
chain: NQWSALSKQIFLAQNQGGKFRNPVDLIKPTGERFQVTNVDSDVVKGNIKLLLNSRASTADENFITTMTLLGESVVN
anti-tumor activity [3]: neither anti-HIV nor anti-tumor activity | anti-HIV activity (HIV-1): neither anti-HIV nor anti-tumor activity

B2: MVF25: MAP30 V8 fragment, 24-25 kDa, residues 1-219 of SEQ ID NO:1 (protein, listed as Momordica charantia)
chain: DVNFDLSTATAKTYTKFIEDFRATLPFSHKVYDIPLLYSTISDSRRFILLDLTSYAYETISVAIDVTNVYVVAYRTRDVSYFFKESPPEAYNILFKGTRKITLPYTGNYENLQTAAHKIRENIDLGLPALSSAITTLFYYNAQSAPSALLVLIQTTAEAARFKYIERHVAKYVATNFKPNLAIISLENQWSALSKQIFLAQNQGGKFRNPVDLIKPTGE
ribosome inactivation [1]: none of these fragments are active | DNA topological inactivation (supercoiled HIV-LTR DNA): active | HIV-integrase inhibition (HIV-1 integrase): active

B3: MLF0.8: MAP30 Lys-C C-terminal fragment, residues 196-263 of SEQ ID NO:1 (protein, listed as Momordica charantia)
chain: QIFLAQNQGGKFRNPVDLIKPTGERFQVTNVDSDVVKGNIKLLLNSRASTADENFITTMTLLGESVVN
anti-tumor activity [3]: neither anti-HIV nor anti-tumor activity | anti-HIV activity (HIV-1): neither anti-HIV nor anti-tumor activity

B4: MVF21: MAP30 V8 fragment, 20-21 kDa, residues 1-187 of SEQ ID NO:1 (protein, listed as Momordica charantia)
chain: DVNFDLSTATAKTYTKFIEDFRATLPFSHKVYDIPLLYSTISDSRRFILLDLTSYAYETISVAIDVTNVYVVAYRTRDVSYFFKESPPEAYNILFKGTRKITLPYTGNYENLQTAAHKIRENIDLGLPALSSAITTLFYYNAQSAPSALLVLIQTTAEAARFKYIERHVAKYVATNFKPNLAIISLE
ribosome inactivation [1]: none of these fragments are active | resistance to proteolysis [2]: remained intact even after 24 hr of proteolysis | DNA topological inactivation (supercoiled HIV-LTR DNA): active | HIV-integrase inhibition (HIV-1 integrase): active

B5: MLF21: MAP30 Lys-C fragment, 20-21 kDa, residues 13-195 of SEQ ID NO:1 (protein, listed as Momordica charantia)
chain: TYTKFIEDFRATLPFSHKVYDIPLLYSTISDSRRFILLDLTSYAYETISVAIDVTNVYVVAYRTRDVSYFFKESPPEAYNILFKGTRKITLPYTGNYENLQTAAHKIRENIDLGLPALSSAITTLFYYNAQSAPSALLVLIQTTAEAARFKYIERHVAKYVATNFKPNLAIISLENQWSALSK
ribosome inactivation [1]: none of these fragments are active | DNA topological inactivation (supercoiled HIV-LTR DNA): active | HIV-integrase inhibition (HIV-1 integrase): active

B6: MLF25: MAP30 Lys-C fragment, 24-25 kDa, residues 13-232 of SEQ ID NO:1 (protein, listed as Momordica charantia)
chain: TYTKFIEDFRATLPFSHKVYDIPLLYSTISDSRRFILLDLTSYAYETISVAIDVTNVYVVAYRTRDVSYFFKESPPEAYNILFKGTRKITLPYTGNYENLQTAAHKIRENIDLGLPALSSAITTLFYYNAQSAPSALLVLIQTTAEAARFKYIERHVAKYVATNFKPNLAIISLENQWSALSKQIFLAQNQGGKFRNPVDLIKPTGERFQVTNVDSDVVK
ribosome inactivation [1]: none of these fragments are active | resistance to proteolysis [2]: remained intact even after 24 hr of proteolysis | DNA topological inactivation (supercoiled HIV-LTR DNA): active | HIV-integrase inhibition (HIV-1 integrase): active
